Target: T1, peptide TM1 (N'-TRVTSFLDWIHEQMERDLKT-C')
T1 construct: Peptide antigen coated on the plate
T1 peptide: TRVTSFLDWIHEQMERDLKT
Assay: binding implied by the name and by sequencing of ELISA positive clones (phage ELISA on coated TM1); not said in so many words

binding result: binds
B1: TM1 scFV (scFv)
scFv: ETTLTQSPSSLSASVGDRVTITCRTSQTINNYLNWYQQKPGKAPKVLIFGASRLQSGVPSRFSGSGSGTHFTLTITSLQPEDVATYYCQQSYGTPYTFGQGTKVEIKVDITSYNVYYTKLSLEQVQLQQWGAGLLKPSETLSLTCAIYNGSFGGYYWNWIRQPPGKGLEWIGEINQRESTNFNPSFKSRVTMSVDTSNNQFSLRLSSLTAADTAVYFCARGLYYDTTGFFDAFAVWGQGTTVTVSHLGLMGHHHHHH

From patent US20060057632A1 (KEIO UNIVERSITY, published 2006)
